Assay in all cases: split reporter
The target in assay [1] is T1, sLgBiT-GPR83 (N-terminally sLgBiT-fused mature human GPR83) (human, UniProt Q9NYM4-1 17-423).
Assay [2] addresses T1, sLgBiT-GPR83 (N-terminally sLgBiT-fused …). This is another data set of the same source.
Assay [3] shares this target. This is another data set of the same source.

Several values for one entry are separate records, joined by “and”; a condition that tells them apart may be missing. Equal values may be shown once.

T1 sequence (Q9NYM4 17-423): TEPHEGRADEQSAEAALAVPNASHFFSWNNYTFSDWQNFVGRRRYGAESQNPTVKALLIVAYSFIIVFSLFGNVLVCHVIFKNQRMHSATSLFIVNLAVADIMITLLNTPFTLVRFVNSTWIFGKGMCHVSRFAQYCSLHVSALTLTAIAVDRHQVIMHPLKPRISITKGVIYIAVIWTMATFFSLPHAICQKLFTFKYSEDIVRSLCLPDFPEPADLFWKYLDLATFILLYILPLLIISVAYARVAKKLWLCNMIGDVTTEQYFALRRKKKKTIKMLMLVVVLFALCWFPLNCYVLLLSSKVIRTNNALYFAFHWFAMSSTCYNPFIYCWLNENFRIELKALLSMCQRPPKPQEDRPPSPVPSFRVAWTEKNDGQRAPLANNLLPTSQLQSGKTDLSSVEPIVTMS

B1: SmBiT-FAM237A (ligand)
chain: HSQTDLLALSQADPQCWESSSVLLLEMWKPRVSNTVSGFWDFMIYLKSSENLKHGALFWDLAQLFWDIYVDCVLSRNHGL
With B1, in assay [1], the Kd is ~70 nM. In addition, in assay [2], the association half-life is ~3 min and the dissociation half-life was ~7.5 min.

B2: mature human FAM237A (family with sequence similarity 237 member A) (ligand)
chain: B1 chain
modifications: amidated C-terminus; one intramolecular disulfide bond
Take B2: the IC50 in assay [3] was 13.5 nM and 12.9 nM and 16.9 nM.

In general, Kd refers to the constant that tells how readily two partners part at equilibrium. A high value points to a looser complex. As usually defined, the IC50 is the concentration needed to halve the response being measured.

(Values after publication doi:10.1101/2022.09.27.509696 (bioRxiv, 2022).)
